What was measured:
GST-HMGN1ΔC = experiment: in vitro multiplex nucleosome-bead conjugate binding assay; settings: for response (RFU (background subtracted)): 0.625 nM GST-HMGN1ΔC, three technical replicates, parent: est. 110000, read off a plot; for other: HMGN1ΔC / HMGN1 relative to canonical nuc.: parent: est. 1.0, read off a plot
GST-HMGN2 [1] = molecular target: GST-HMGN2 (UniProt P05204); experiment: as above; settings: 0.625 nM GST-HMGN2, three technical replicates, parent: est. 54000, read off a plot
GST-HMGN2ΔC = experiment: as above; settings: for response (RFU (background subtracted)): 0.625 nM GST-HMGN2ΔC, three technical replicates, parent: est. 100000, read off a plot; for other: HMGN2ΔC / HMGN2 relative to canonical nuc.: parent: est. 1.0, read off a plot
GST-HMGN1 [2] = molecular target: GST-HMGN1 (UniProt P05114); experiment: as above; settings: 0.625 nM GST-HMGN1, three technical replicates, parent: est. 37000, read off a plot
GST-HMGN2 [3] = molecular target: GST-HMGN2 (UniProt P05204); experiment: in vitro multiplex nucleosome-bead conjugate binding assay (titration); settings: GST-HMGN2 at 5 on the x axis (axis uM; legend nM); raw RFU before normalization; parent: est. 370000; read off a plot
GST-HMGN1 [4] = molecular target: GST-HMGN1 (UniProt P05114); experiment: as above; settings: GST-HMGN1 at 5 on the x axis (axis uM; legend nM); raw RFU before normalization; parent: est. 160000; read off a plot

Chain of UniProt P05114 (P05114 whole entry, looked up): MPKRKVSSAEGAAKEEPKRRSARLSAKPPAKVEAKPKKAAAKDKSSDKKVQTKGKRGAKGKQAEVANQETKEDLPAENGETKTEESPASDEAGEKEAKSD

response (RFU (background subtracted)) (GST-HMGN1ΔC) | other: HMGN1ΔC / HMGN1 relative to canonical nuc. (GST-HMGN1ΔC) | response (RFU (background subtracted)) (GST-HMGN2 [1]) | response (RFU (background subtracted)) (GST-HMGN2ΔC) | other: HMGN2ΔC / HMGN2 relative to canonical nuc. (GST-HMGN2ΔC) | response (RFU (background subtracted)) (GST-HMGN1 [2]) | response (GST-HMGN2 [3]) [RFU] | response (GST-HMGN1 [4]) [RFU] | Substance
66000 | 1.7 | 16000 | 52000 | 2.1 | 11000 | 92000 | 58000 | canonical unmodified nucleosome (from UniProt P04908;O60814;P68431;P62805) H2A:E61A
66000 | 1.1 | 25000 | 38000 | 1.2 | 22000 | 110000 | 74000 | canonical unmodified nucleosome (from UniProt P04908;O60814;P68431;P62805) H2A:E92K
